Substrate in the series: NC(=O)c1ccc[n+]([C@@H]2O[C@H](COP(=O)(O)OP(=O)(O)OC[C@H]3O[C@@H](n4cnc5c(N)ncnc54)[C@H](O)[C@@H]3O)[C@@H](O)[C@H]2O)c1
The series can be described thus: purified protein. Format: biochemical, Homo sapiens. Particulars: 33 mM Tris-acetate pH 7.4, 2 mM Mn2+, 20 mM DL-isocitrate, 25 °C, no NADH, Michaelis-Menten fit, varied: cofactor.

B1: αγ heterodimer of human NAD-IDH (Homo sapiens) (protein)
chain 1: TGGVQTVTLIPGDGIGPEISAAVMKIFDAAKAPIQWEERNVTAIQGPGGKWMIPSEAKESMDKNKMGLKGPLKTPIAAGHPSMNLLLRKTFDLYANVRPCVSIEGYKTPYTDVNIVTIRENTEGEYSGIEHVIVDGVVQSIKLITEGASKRIAEFAFEYARNNHRSNVTAVHKANIMRMSDGLFLQKCREVAESCKDIKFNEMYLDTVCLNMVQDPSQFDVLVMPNLYGDILSDLCAGLIGGLGVTPSGNIGANGVAIFESVHGTAPDIAGKDMANPTALLLSAVMMLRHMGLFDHAARIEAACFATIKDGKSLTKDLGGNAKCSDFTEEICRRVKDLD
chain 2: FSEQTIPPSAKYGGRHTVTMIPGDGIGPELMLHVKSVFRHACVPVDFEEVHVSSNADEEDIRNAIMAIRRNRVALKGNIETNHNLPPSHKSRNNILRTSLDLYANVIHCKSLPGVVTRHKDIDILIVRENTEGEYSSLEHESVAGVVESLKIITKAKSLRIAEYAFKLAQESGRKKVTAVHKANIMKLGDGLFLQCCREVAARYPQITFENMIVDNTTMQLVSRPQQFDVMVMPNLYGNIVNNVCAGLVGGPGLVAGANYGHVYAVFETATRNTGKSIANKNIANPTATLLASCMMLDHLKLHSYATSIRKAVLASMDNENMHTPDIGGQGTTSEAIQDVIRHIRVINGRAVEA
notes: E. coli BL21(DE3) Codon-Plus co-expression from pQlinkN-α-γ-tev-His6; C-terminal His6 of gamma cut with TEV protease; alpha 37 kDa, gamma 39 kDa; heterodimer
B1: the K0.5 is on record as 0.267 ± 0.002 mM.
